According to publication PMC6459857 (Nature Communications, 2019):
Residue numbers refer to the chain shown, from its start. Names and notes keep the numbering of the source.

B1: p27-C29 (full-length p27-Y89F with the single native Cys 29, labelled with BODIPY-FL) (natural protein)
chain: MSNVRVSNGSPSLERMDARQAEHPKPSACRNLFGPVDHEELTRDLEKHARDMEEASQRKWNFDFQNHKPLEGKYEWQEVEKGSLPEFYFRPPRPPKGASKVPAQESQDVSGSRPAAPLIGAPANSEDTHLVDPKTDPSDSQTGLAEQSAGIRKRPATDDSSTQNKRANRTEENVSDGSPNAGSVEQTPKKPGLRRRQT
modifications: BODIPY-FL on Cys 29
notes: p27Kip1 (p27), human, residues 1-198 (full length), Y89F; Cys 29 kept, the other three native Cys replaced; also called p27-29C; source: E. coli, purified (Ni-NTA, His-tag removed with thrombin, reverse-phase HPLC over C4); labelled with BODIPY-FL
B2: p27-C40 (Cys-less full-length p27-Y89F with E40C, labelled with BODIPY-FL) (natural protein)
chain: B1 chain with C29A, E40C
modifications: BODIPY-FL on Cys 40
notes: p27Kip1 (p27), human, residues 1-198 (full length), Y89F, Cys-less background, Glu 40 to Cys; also called p27-40C; source: E. coli, purified (Ni-NTA, His-tag removed with thrombin, reverse-phase HPLC over C4); labelled with BODIPY-FL
B3: p27-C54 (Cys-less full-length p27-Y89F with E54C, labelled with BODIPY-FL) (natural protein)
chain: B1 chain with C29A, E54C
modifications: BODIPY-FL on Cys 54
notes: p27Kip1 (p27), human, residues 1-198 (full length), Y89F, Cys-less background, Glu 54 to Cys; also called p27-54C; source: E. coli, purified (Ni-NTA, His-tag removed with thrombin, reverse-phase HPLC over C4); labelled with BODIPY-FL
B4: p27-C75 (Cys-less full-length p27-Y89F with E75C, labelled with BODIPY-FL) (natural protein)
chain: B1 chain with C29A, E75C
modifications: BODIPY-FL on Cys 75
notes: p27Kip1 (p27), human, residues 1-198 (full length), Y89F, Cys-less background, Glu 75 to Cys; also called p27-75C; source: E. coli, purified (Ni-NTA, His-tag removed with thrombin, reverse-phase HPLC over C4); labelled with BODIPY-FL
B5: p27-C93 (Cys-less full-length p27-Y89F with R93C, labelled with BODIPY-FL) (natural protein)
chain: B1 chain with C29A, R93C
modifications: BODIPY-FL on Cys 93
notes: p27Kip1 (p27), human, residues 1-198 (full length), Y89F, Cys-less background, Arg 93 to Cys; also called p27-93C; source: E. coli, purified (Ni-NTA, His-tag removed with thrombin, reverse-phase HPLC over C4); labelled with BODIPY-FL
B6: BODIPY-labeled p27-C29 (natural protein)
chain: B1 chain
modifications: BODIPY-FL on the native cysteine at 29
notes: p27Kip1 (p27), human, p27-Y89F background with the single native Cys 29 kept; also called p27–29C; source: E. coli, purified; labelled with BODIPY-FL
B7: BODIPY-labeled p27-C93 (natural protein)
chain: B1 chain with C29A, R93C
modifications: BODIPY-FL on the cysteine at 93
notes: p27Kip1 (p27), human, in the Cys-less p27-Y89F background; source: E. coli, purified; labelled with BODIPY-FL
B8: BODIPY-labeled pY88-p27-C93 (natural protein)
chain: B1 chain with C29A, R93C
modifications: phosphotyrosine at 88; BODIPY-FL on the cysteine at 93
notes: p27Kip1 (p27), human, in the Cys-less p27-Y89F background; source: E. coli, purified; labelled with BODIPY-FL; phosphorylated with ABL-KD
B9: Y74E/Y88E-p27 (natural protein)
chain: B1 chain with A49C, Y74E, Y88E, S99C, S148C
notes: p27Kip1 (p27), human, residues 1–198 (full length); also called Y88E/Y74E; dual Y phosphomimetic p27; source: E. coli, purified (Ni2+-NTA, His-tag removed with thrombin, reverse-phase HPLC over C4 resin)
B10: p27-C29-54 (Alexa Fluor 488 / Alexa Fluor 647 labelled) (natural protein)
chain: B1 chain with E54C
modifications: Alexa Fluor 488 maleimide and Alexa Fluor 647 maleimide on the cysteines at 29 and 54
notes: p27Kip1 (p27), human, p27-Y89F background with the native Cys 29 kept; source: E. coli, purified; dye-labelled, dual-labelled species separated by ion-exchange chromatography
B11: p27-C54-93 (Alexa Fluor 488 / Alexa Fluor 647 labelled) (natural protein)
chain: B1 chain with C29A, E54C, R93C
modifications: Alexa Fluor 488 maleimide and Alexa Fluor 647 maleimide on the cysteines at 54 and 93
notes: p27Kip1 (p27), human, in the Cys-less p27-Y89F background; also called p27-C54-C93; source: E. coli, purified; dye-labelled, dual-labelled species separated by ion-exchange chromatography
B12: p27-C75-110 (Alexa Fluor 488 / Alexa Fluor 647 labelled) (natural protein)
chain: B1 chain with C29A, E75C, S110C
modifications: Alexa Fluor 488 maleimide and Alexa Fluor 647 maleimide on the cysteines at 75 and 110
notes: p27Kip1 (p27), human, in the Cys-less p27-Y89F background; source: E. coli, purified; dye-labelled, dual-labelled species separated by ion-exchange chromatography
B13: pY88-p27-C54-93 (Alexa Fluor 488 / Alexa Fluor 647 labelled) (natural protein)
chain: B1 chain with C29A, E54C, R93C
modifications: phosphotyrosine at 88; Alexa Fluor 488 maleimide and Alexa Fluor 647 maleimide on the cysteines at 54 and 93
notes: p27Kip1 (p27), human, in the Cys-less p27-Y89F background; source: E. coli, purified; dye-labelled; phosphorylated with ABL-KD

Tests used:
Conditions in all cases: both partners purified
[1] = biological target: Cdk2/cyclin A binary complex (human, UniProt P24941 1-298; P20248 173-432); assay: single-molecule fluorescence anisotropy (smFA); BODIPY-labelled single-Cys p27, not phosphorylated, free or in complex with Cdk2/cyclin A, diluted to pM; 20 mM HEPES pH 7.5, 300 mM NaCl, 40 µM TROLOX; average anisotropy of free and complexed p27 compared
[2] = biological target: T1, Cdk2/cyclin A binary complex (human, UniProt P24941 1-298; P20248 173-432); assay: single-molecule fluorescence anisotropy (smFA); BODIPY-labelled single-cysteine p27 in complex with Cdk2/cyclin A, freely diffusing molecules at pM concentration; 20 mM HEPES pH 7.5, 300 mM NaCl, 40 µM TROLOX
[3] = biological target: T1, Cdk2/cyclin A binary complex; assay: ITC; 10 µM p27 or p27 Y to E variants injected into 1 µM Cdk2/cyclin A binary complex; 20 mM HEPES pH 7.5, 300 mM NaCl, 2 mM TCEP; experiments from 5 to 25 °C in intervals of 5 °C (temperature of the tabulated values not stated); single-site binding model
[4] = biological target: T1, Cdk2/cyclin A binary complex; assay: FRET or BRET; single-molecule FRET (smMFD) within dual-labelled p27 in complex with Cdk2/cyclin A, freely diffusing molecules at pM concentration; 20 mM HEPES pH 7.5, 300 mM NaCl, 40 µM TROLOX

Binder	binding result [1]	binding result [4]	also measured
B1	binds	–	–
B2	binds	–	–
B3	binds	–	–
B4	binds	–	–
B5	binds	–	–
B6	–	–	binding result [2]: binds
B7	–	–	binding result [2]: binds
B8	–	–	binding result [2]: binds
B9	–	–	Kd [3]: 14 nM; dH [3]: -34.4 kcal/mol
B10	–	binds	–
B11	–	binds	–
B12	–	binds	–
B13	–	binds	–
